Results taken from PMC4250932.

System: NC(=O)C1=CN([C@@H]2O[C@H](COP(=O)(O)OP(=O)(O)OC[C@H]3O[C@@H](n4cnc5c(N)ncnc54)[C@H](OP(=O)(O)O)[C@@H]3O)[C@@H](O)[C@H]2O)C=CC1
Test: purified protein
Details: varied: cofactor

Substance: RmlD (dTDP-6-deoxy-L-lyxo-4-hexulose reductase) (Mycobacterium tuberculosis H37Rv)
- Km: 12.5 µM
